From patent US10556936B2, “Immunogenic proteins and fragments thereof from allergenic mites” (ALK-ABELLÓ A/S, priority 2016, dated 2020)

B1: A024: house dust mite protein; SEQ ID NO: 11 (Der f), 12 (Der p), 318 (Blo t) (protein)
chain: MSISAHGGGLVNGIAGMENKFTVFTSGKPVSGLTVAFEGPTKPEINFNSTKDGSVDVGYIPKAGGQYKIHIKYEGKEIVGSPFKCNISGDESTHRKLTEKVKVGGPNISTGKVNQDNQLTIDCKEAGITGGISFAMEGPAKVEVSFRNNNDGTITVIYKPPTPGDYKLHLKFNDIHLPGSPYPIVVSA
B2: A022: house dust mite protein; SEQ ID NO: 19 (Der f), 20 (Der p), 317 (Blo t) (protein)
chain: NWQMVWQDEFNGGHLDQNHWEFETGGGGWGNNELEFYTANRSQNVRVENGHLVIDVRVESYGGRDFTSGRIHSKQAWAYGKFEARARLPSGHHLWPAIWMFPRDSKYGPWAASGEIDIMEYRGDVHDKIEGTIHYGGQWPNNIYTGSGPHHFNVDFSKDFHNFAVEWDTKEIRWYMDGNKYFSVNIDRNMWSGKGNNPYNKNGQPFDQPFRWILNVAVGGNFFGPGPYVTPDQARHWQKHTMEIDYVRVYQWR

Each molecule was assayed on basophils in whole blood from HDM allergic donors (assay: Basophil Activation Test (BAT)). Settings: 1 ng/ml; blood from HDM allergic individuals (n=14).
Type: cell-based, human
In short: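 Basophil activation was read by flow cytometry as increased surface activation markers. The stimulus was a 1 h exposure of blood from 14 HDM-allergic donors to test proteins or major mite allergens at graded concentrations (e.g. 1–1000 ng/ml).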

Row | Molecule | # of individuals of 14 with positive BAT test
1 | B1 | 2
2 | B2 | 0

Same assay, conditions: 10 ng/ml; blood from HDM allergic individuals (n=14)

Row | Molecule | # of individuals of 14 with positive BAT test
3 | B1 | 2
4 | B2 | 0

Same assay, conditions: 100 ng/ml; blood from HDM allergic individuals (n=14)

Row | Molecule | # of individuals of 14 with positive BAT test
5 | B1 | 3
6 | B2 | 3

Same assay, conditions: 1000 ng/ml; blood from HDM allergic individuals (n=14)

Row | Molecule | # of individuals of 14 with positive BAT test
7 | B1 | 3
8 | B2 | 5

What follows are molecules tested on T cell lines obtained from HDM allergic individuals and non-allergics (assay: In vitro T cell proliferation test in T cell lines (Example 3)). Settings: T cell lines from HDM allergic individuals (n=30); 0.5 or 2 ug/ml; 72 h.
Type: cell-based, human
In short: (§1)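 Freshly isolated PBMC (5×10^6/ml) from mite-allergic patients or non-allergics cultured 5 days with test protein up to 10 ug/ml; IFN-gamma, IL-9, IL-10, IL-17, IL-31 in supernatants by multiplex immunoassay. T cell lines, raised 3 weeks on HDM extract, tested at 0.5 or 2 ug/ml protein in 72 h proliferation assay.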

Row | Molecule | % responders of in-vitro T cell proliferation test, Allergic [%]
9 | B1 | 21
10 | B2 | 29

Same assay, conditions: T cell lines from non-allergics (n=8); 0.5 or 2 ug/ml; 72 h

Row | Molecule | % responders of in-vitro T cell proliferation test, Non-allergics [%]
11 | B1 | 0
12 | B2 | 0

These molecules were tested on PBMC cells obtained from mite allergic patients and non-allergics (assay: Ex vivo stimulation of PBMC: cytokine production (IFN-gamma, IL-9, IL-10, IL-17, IL-31)). Settings: HDM allergic individuals; IL-5.
Type: cell-based, human
In short: as §1

Row | Molecule | % HDM allergic individuals with cytokine production in ex-vivo T cell assay IL-5 [%]
13 | B1 | 13
14 | B2 | 31

Same assay, conditions: HDM allergic individuals; IL-9

Row | Molecule | % HDM allergic individuals with cytokine production in ex-vivo T cell assay IL-9 [%]
15 | B1 | 6
16 | B2 | 6

Same assay, conditions: HDM allergic individuals; IL-10

Row | Molecule | % HDM allergic individuals with cytokine production in ex-vivo T cell assay IL-10 [%]
17 | B1 | 25
18 | B2 | 6

Same assay, conditions: HDM allergic individuals; IL-13

Row | Molecule | % HDM allergic individuals with cytokine production in ex-vivo T cell assay IL-13 [%]
19 | B1 | 6
20 | B2 | 13

Same assay, conditions: HDM allergic individuals; IL-17

Row | Molecule | % HDM allergic individuals with cytokine production in ex-vivo T cell assay IL-17 [%]
21 | B1 | 6
22 | B2 | 0

Same assay, conditions: HDM allergic individuals; IL-31

Row | Molecule | % HDM allergic individuals with cytokine production in ex-vivo T cell assay IL-31 [%]
23 | B1 | 0
24 | B2 | 0

Same assay, conditions: HDM allergic individuals; INF-g

Row | Molecule | % HDM allergic individuals with cytokine production in ex-vivo T cell assay INF-g [%]
25 | B1 | 0
26 | B2 | 0

Same assay, conditions: non-allergic individuals; IL-5

Row | Molecule | % non-allergic individuals with cytokine production in ex-vivo T cell assay IL-5 [%]
27 | B1 | 0
28 | B2 | 0

Same assay, conditions: non-allergic individuals; IL-9

Row | Molecule | % non-allergic individuals with cytokine production in ex-vivo T cell assay IL-9 [%]
29 | B1 | 0
30 | B2 | 0

Same assay, conditions: non-allergic individuals; IL-10

Row | Molecule | % non-allergic individuals with cytokine production in ex-vivo T cell assay IL-10 [%]
31 | B1 | 17
32 | B2 | 0

Same assay, conditions: non-allergic individuals; IL-13

Row | Molecule | % non-allergic individuals with cytokine production in ex-vivo T cell assay IL-13 [%]
33 | B1 | 0
34 | B2 | 0

Same assay, conditions: non-allergic individuals; IL-17

Row | Molecule | % non-allergic individuals with cytokine production in ex-vivo T cell assay IL-17 [%]
35 | B1 | 0
36 | B2 | 0

Same assay, conditions: non-allergic individuals; IL-31

Row | Molecule | % non-allergic individuals with cytokine production in ex-vivo T cell assay IL-31 [%]
37 | B1 | 0
38 | B2 | 0

Same assay, conditions: non-allergic individuals; INF-g

Row | Molecule | % non-allergic individuals with cytokine production in ex-vivo T cell assay INF-g [%]
39 | B1 | 0
40 | B2 | 17
